In data set [1] the target is T1, PARP2 FL E286R (human (Homo sapiens), UniProt Q9UGN5 1-583, E286R). As to the kind of experiment: fluorescence polarization; mean and SD of 3 listed KDs (12.72, 25.07, 16.53); FP buffer, salt, pH and temperature not given (as in cited ref 17); crystallization: complex purified in 20 mM Hepes pH 7.5, 300 mM NaCl, 0.5 mM TCEP; crystals. The settings on record: protein: recombinant; tags: His-tag construct, TEV cleaved; label: fluorescein on internal T8 of strand 2; blunt, 20 bp. For orientation: Polarisation of emitted light reports the rotation of a fluorescent probe.
T1 sequence (Q9UGN5 whole entry E286R): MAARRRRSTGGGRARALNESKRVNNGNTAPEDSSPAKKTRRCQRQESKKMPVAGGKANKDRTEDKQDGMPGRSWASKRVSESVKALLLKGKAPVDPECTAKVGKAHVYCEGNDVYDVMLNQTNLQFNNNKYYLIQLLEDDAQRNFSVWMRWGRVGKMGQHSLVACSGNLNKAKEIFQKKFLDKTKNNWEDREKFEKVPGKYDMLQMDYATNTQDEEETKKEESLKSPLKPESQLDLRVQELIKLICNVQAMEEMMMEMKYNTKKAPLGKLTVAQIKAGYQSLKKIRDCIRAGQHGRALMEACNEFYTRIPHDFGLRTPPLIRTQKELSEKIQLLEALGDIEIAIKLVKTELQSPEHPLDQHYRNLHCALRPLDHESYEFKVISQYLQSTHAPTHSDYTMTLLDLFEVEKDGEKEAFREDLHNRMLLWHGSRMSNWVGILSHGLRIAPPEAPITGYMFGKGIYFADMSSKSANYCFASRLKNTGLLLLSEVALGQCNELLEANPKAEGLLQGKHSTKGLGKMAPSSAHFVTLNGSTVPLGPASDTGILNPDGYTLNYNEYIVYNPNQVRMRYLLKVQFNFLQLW

Data set [2] concerns the target T2, PARP2 FL N129A (human (Homo sapiens), UniProt Q9UGN5 1-583, N129A). Nature of the data set: fluorescence polarization; mean and SD of 3 listed KDs (58.73, 44.74, 72.15); FP buffer, salt, pH and temperature not given (as in cited ref 17); crystallization: complex purified in 20 mM Hepes pH 7.5, 300 mM NaCl, 0.5 mM TCEP; crystals. Particulars: protein: recombinant; tags: His-tag construct, TEV cleaved; label: fluorescein on internal T8 of strand 2; blunt, 20 bp.

Data set [3] addresses T3, PARP2 FL G338A (human (Homo sapiens), UniProt Q9UGN5 1-583, G338A). Nature of the data set: fluorescence polarization; mean and SD of 3 listed KDs (27.96, 29.72, 25.09); FP buffer, salt, pH and temperature not given (as in cited ref 17); crystallization: complex purified in 20 mM Hepes pH 7.5, 300 mM NaCl, 0.5 mM TCEP; crystals. The settings on record: protein: recombinant; tags: His-tag construct, TEV cleaved; label: fluorescein on internal T8 of strand 2; blunt, 20 bp.

Data set [4] concerns the target T4, PARP2 FL E286A (human (Homo sapiens), UniProt Q9UGN5 1-583, E286A). Nature of the data set: fluorescence polarization; mean and SD of 3 listed KDs (22.43, 26.3, 23.94); FP buffer, salt, pH and temperature not given (as in cited ref 17); crystallization: complex purified in 20 mM Hepes pH 7.5, 300 mM NaCl, 0.5 mM TCEP; crystals. The settings on record: protein: recombinant; tags: His-tag construct, TEV cleaved; label: fluorescein on internal T8 of strand 2; blunt, 20 bp.

The target of data set [5] is T5, PARP2 FL Y201F (human (Homo sapiens), UniProt Q9UGN5 1-583, Y201F). Nature of the data set: fluorescence polarization; mean and SD of 3 listed KDs (93.24, 46.79, 151.2); FP buffer, salt, pH and temperature not given (as in cited ref 17); crystallization: complex purified in 20 mM Hepes pH 7.5, 300 mM NaCl, 0.5 mM TCEP; crystals. The settings on record: protein: recombinant; tags: His-tag construct, TEV cleaved; label: fluorescein on internal T8 of strand 2; blunt, 20 bp.
T5 sequence (Q9UGN5 whole entry Y201F): as the sequence (Q9UGN5 whole entry E286R) above, with Y201F, R286E counted along it

Data set [6] concerns the target T6, PARP2 FL R153A (human (Homo sapiens), UniProt Q9UGN5 1-583, R153A). Nature of the data set: fluorescence polarization; mean and SD of 3 listed KDs (232.6, 64.05, 161.3); FP buffer, salt, pH and temperature not given (as in cited ref 17); crystallization: complex purified in 20 mM Hepes pH 7.5, 300 mM NaCl, 0.5 mM TCEP; crystals. The settings on record: protein: recombinant; tags: His-tag construct, TEV cleaved; label: fluorescein on internal T8 of strand 2; blunt, 20 bp.

Data set [7] has as its target T7, PARP2 FL wt (human (Homo sapiens), UniProt Q9UGN5 1-583). Nature of the data set: fluorescence polarization; mean and SD of 3 listed KDs (28.05, 21.44, 26.07); FP buffer, salt, pH and temperature not given (as in cited ref 17); crystallization: complex purified in 20 mM Hepes pH 7.5, 300 mM NaCl, 0.5 mM TCEP; crystals. Particulars: protein: recombinant; tags: His-tag construct, TEV cleaved; label: fluorescein on internal T8 of strand 2; blunt, 20 bp.

The target in data set [8] is T3, PARP2 FL G338A. As to the kind of experiment: fluorescence polarization; mean and SD of 3 listed KDs (10.62, 9.907, 6.489); FP buffer, salt, pH and temperature not given (as in cited ref 17); crystallization: complex purified in 20 mM Hepes pH 7.5, 300 mM NaCl, 0.5 mM TCEP; crystals. Particulars: protein: recombinant; tags: His-tag construct, TEV cleaved; label: fluorescein on internal T10; dumbbell of two hairpins (TTTT loops) with one nick.

Data set [9] concerns the target T5, PARP2 FL Y201F. Nature of the data set: fluorescence polarization; mean and SD of 3 listed KDs (46.26, 27.47, 48.04); FP buffer, salt, pH and temperature not given (as in cited ref 17); crystallization: complex purified in 20 mM Hepes pH 7.5, 300 mM NaCl, 0.5 mM TCEP; crystals. The settings on record: protein: recombinant; tags: His-tag construct, TEV cleaved; label: fluorescein on internal T10; dumbbell of two hairpins (TTTT loops) with one nick.

Data set [10] addresses T2, PARP2 FL N129A. As to the kind of experiment: fluorescence polarization; mean and SD of 3 listed KDs (14.36, 8.278, 5.785); FP buffer, salt, pH and temperature not given (as in cited ref 17); crystallization: complex purified in 20 mM Hepes pH 7.5, 300 mM NaCl, 0.5 mM TCEP; crystals. The settings on record: protein: recombinant; tags: His-tag construct, TEV cleaved; label: fluorescein on internal T10; dumbbell of two hairpins (TTTT loops) with one nick.

Data set [11] deals with T7, PARP2 FL wt. Nature of the data set: fluorescence polarization; mean and SD of 3 listed KDs (10.74, 7.933, 8.182); FP buffer, salt, pH and temperature not given (as in cited ref 17); crystallization: complex purified in 20 mM Hepes pH 7.5, 300 mM NaCl, 0.5 mM TCEP; crystals. The settings on record: protein: recombinant; tags: His-tag construct, TEV cleaved; label: fluorescein on internal T10; dumbbell of two hairpins (TTTT loops) with one nick.

Data set [12] has as its target T4, PARP2 FL E286A. As to the kind of experiment: fluorescence polarization; mean and SD of 3 listed KDs (10.42, 7.271, 6.234); FP buffer, salt, pH and temperature not given (as in cited ref 17); crystallization: complex purified in 20 mM Hepes pH 7.5, 300 mM NaCl, 0.5 mM TCEP; crystals. The settings on record: protein: recombinant; tags: His-tag construct, TEV cleaved; label: fluorescein on internal T10; dumbbell of two hairpins (TTTT loops) with one nick.

The target in data set [13] is T1, PARP2 FL E286R. Nature of the data set: fluorescence polarization; mean and SD of 3 listed KDs (18.12, 7.571, 5.497); FP buffer, salt, pH and temperature not given (as in cited ref 17); crystallization: complex purified in 20 mM Hepes pH 7.5, 300 mM NaCl, 0.5 mM TCEP; crystals. Particulars: protein: recombinant; tags: His-tag construct, TEV cleaved; label: fluorescein on internal T10; dumbbell of two hairpins (TTTT loops) with one nick.

The target of data set [14] is T6, PARP2 FL R153A. Nature of the data set: fluorescence polarization; mean and SD of 3 listed KDs (20.13, 10.37, 8.203); FP buffer, salt, pH and temperature not given (as in cited ref 17); crystallization: complex purified in 20 mM Hepes pH 7.5, 300 mM NaCl, 0.5 mM TCEP; crystals. Particulars: protein: recombinant; tags: His-tag construct, TEV cleaved; label: fluorescein on internal T10; dumbbell of two hairpins (TTTT loops) with one nick.

For the next data set, the target named is PARP2 WGR-RD-ART (human (Homo sapiens), UniProt Q9UGN5 90-583). As to the kind of experiment: X-ray crystallography (2.8 A); FP buffer, salt, pH and temperature not given (as in cited ref 17); crystallization: complex purified in 20 mM Hepes pH 7.5, 300 mM NaCl, 0.5 mM TCEP; crystals. Particulars: protein: recombinant; tags: His-tag construct, TEV cleaved; chain copies: 2; blunt, 16 bp; 2 duplex copies in the biological unit.
Chain of PARP2 WGR-RD-ART (Q9UGN5 90-583): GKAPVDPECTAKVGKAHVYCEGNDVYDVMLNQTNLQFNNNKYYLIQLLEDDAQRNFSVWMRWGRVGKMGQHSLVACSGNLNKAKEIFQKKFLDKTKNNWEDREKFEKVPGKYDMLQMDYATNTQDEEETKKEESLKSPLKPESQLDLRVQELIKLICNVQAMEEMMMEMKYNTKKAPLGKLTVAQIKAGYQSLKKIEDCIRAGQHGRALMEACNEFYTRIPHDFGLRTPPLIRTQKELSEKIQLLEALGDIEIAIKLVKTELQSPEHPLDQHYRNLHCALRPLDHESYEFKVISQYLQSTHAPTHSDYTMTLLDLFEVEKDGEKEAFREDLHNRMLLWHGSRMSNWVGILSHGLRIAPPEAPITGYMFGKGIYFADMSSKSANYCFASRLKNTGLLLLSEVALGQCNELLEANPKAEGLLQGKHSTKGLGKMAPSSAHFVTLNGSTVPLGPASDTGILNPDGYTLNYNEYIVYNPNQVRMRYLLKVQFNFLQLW

T3 sequence (Q9UGN5 whole entry G338A): as the sequence (Q9UGN5 whole entry E286R) above, with R286E, G338A counted along it
T2 sequence (Q9UGN5 whole entry N129A): as the sequence (Q9UGN5 whole entry E286R) above, with N129A, R286E counted along it
T4 sequence (Q9UGN5 whole entry E286A): as the sequence (Q9UGN5 whole entry E286R) above, with R286A counted along it
T7 sequence (Q9UGN5 whole entry): as the sequence (Q9UGN5 whole entry E286R) above, with R286E counted along it
T6 sequence (Q9UGN5 whole entry R153A): as the sequence (Q9UGN5 whole entry E286R) above, with R153A, R286E counted along it

B1: DNA-9 dsDNA (dsDNA)
DNA 1: GACGCAACCCGGAGAACACA
DNA 2: TGTGTTCTCCGGGTTGCGTC
modifications: 5'-phosphate on strand 1
For orientation: Kd means the constant that tells how readily two partners part at equilibrium. For B1, the Kd came out at 18.1 ± 6.32 nM with PARP2 FL E286R [1]; 58.5 ± 13.7 nM with PARP2 FL N129A [2]; 27.6 ± 2.34 nM with PARP2 FL G338A [3]; 24.2 ± 1.96 nM with PARP2 FL E286A [4]; 97.1 ± 52.3 nM with PARP2 FL Y201F [5]; 153 ± 84.6 nM with PARP2 FL R153A [6]. The equilibrium dissociation constant (Kd) with PARP2 FL wt [7] is 25.2 ± 3.39 nM.

B2: DNA-8 nicked dumbbell (structured_DNA)
DNA: GGAAGTCTTTTGACTTCCTCGAAGCTTTTGCTTCGA
modifications: 5'-phosphate
For B2, the Kd with PARP2 FL G338A [8] was 9.01 ± 2.21 nM; with PARP2 FL Y201F [9], 40.6 ± 11.4 nM; with PARP2 FL N129A [10] it was 9.47 ± 4.41 nM; in the data set with PARP2 FL wt [11], 8.95 ± 1.55 nM; in the data set with PARP2 FL E286A [12], 7.98 ± 2.18 nM; with PARP2 FL E286R [13] it was 10.4 ± 6.77 nM. Besides, the Kd in the data set with PARP2 FL R153A [14] amounted to 12.9 ± 6.35 nM.

B3: DNA-1 (dsDNA)
DNA 1: GACGACCCGGAGCACA
DNA 2: TGTGCTCCGGGTCGTC
modifications: 5'-phosphate on strand 1
Take B3: in the data set with PARP2 WGR-RD-ART, the binding result is “binds”.

These data come from article PMC8190142, “Activation of PARP2/ARTD2 by DNA damage induces conformational changes relieving enzyme autoinhibition”.
